Target: human CD3 on Jurkat luciferase reporter T cells (human)
Assay: cell-based or functional assay

| Binder | relative luciferase activity (fold, maximum), Jurkat luciferase reporter T cells co-cultured with dead (MTX treated) Ba/F3 cells [fold] | relative luciferase signal (fold induction), Jurkat luciferase reporter T cells co-cultured with live (untreated) Ba/F3 cells [fold] | further results |
| --- | --- | --- | --- |
| TR01H113-mF18/TR01L0011-mk1 (anti-CD3) (antibody, mouse IgG1, kappa) heavy: QVQLVESGGGVVQPGGSLRLSCAASGFTFSNAWMHWVRQAPGKGLEWVAQIKDKSQNYATYVAESVKGRFTISRADSKNSIYLQMNSLKTEDTAVYYCRYVHYAAGYGVDIWGQGTTVTVSSAKTTPPSVYPLAPGSAAQTNSMVTLGCLVKGYFPEPVTVTWNSGSLSSGVHTFPAVLQSDLYTLSSSVTVPSSTWPSETVTCNVAHPASSTKVDKKIVPRDCGCKPCICTVKEVSKVFIFPPKPKDVLTITLTPKVTCVVVDISKDDPEVQFSWFVDDVEVHTAQTQPREEQFNSTFRSVSELPIMHQDWLNGKEFKCRVNSAAFPAPIEKTISKTKGRPKAPQVYTIPPPKEQMAKDKVSLTCMITDFFPEDITVEWQWNGQPAENYKNTQPIMDTDGSYFVYSKLNVQKSNWEAGNTFTCSVLHEGLHNHHTEKSLSHSPGK light: DIVMTQSPLSLPVTPGEPASISCRSSQPLVHSNRNTYLHWYQQKPGQAPRLLIYKVSNRFSGVPDRFSGSGSGTDFTLKISRVEAEDVGVYYCGQGTQVPYTFGQGTKLEIKRADAAPTVSIFPPSSEQLTSGGASVVCFLNNFYPKDINVKWKIDGSERQNGVLNSWTDQDSKDSTYSMSSTLTLTKDEYERHNSYTCEATHKTSTSPIVKSFNRNEC |  |  | relative fold induction of luciferase, Jurkat luciferase reporter T cells co-cultured with dead (MTX treated) Ba/F3 cells: ~20 fold; relative luciferase signal (fold induction, maximum), Jurkat luciferase reporter T cells co-cultured with live (untreated) Ba/F3 cells: ~22 fold |
| TX_3G4VH-mBS1001b/3G4VL-mk1//TR01H113-mBS1001a/TR01L0011-mk1 (anti-PS(3G4)//CD3) (bispecific antibody, mouse IgG1, kappa) heavy 1: EVQLQQSGPELEKPGASVKLSCKASGYSFTGYNMNWVKQSHGKSLEWIGHIDPYYGDTSYNQKFRGKATLTVDKSSSTAYMQLKSLTSEDSAVYYCVKGGYYGHWYFDVWGAGTTVTVSSAKTTPPSVYPLAPGSAAQTNSMVTLGCLVKGYFPEPVTVTWNSGSLSSGVHTFPAVLQSDLYTLSSSVTVPSSTWPSETVTCNVAHPASSTKVDKKIVPRDCGCKPCICTVKEVSKVFIFPPKPKDVLTITLTPKVTCVVVDISKDDPEVQFSWFVDDVEVHTAQTQPREEQFNSTFRSVSELPIMHQDWLNGKEFKCRVNSAAFPAPIEKTISKTKGRPKAPQVYTIPPPKEQMAKDKVSLTCMITDFFPEDITVEWQWNGQPAENYKNTQPIMRTDGSYFVYSKLNVQKSNWEAGNTFTCSVLHEGLHNHHTEKSLSHSPGK light 1: DIQMTQSPSSLSASLGERVSLTCRASQDIGSSLNWLQQGPDGTIKRLIYATSSLDSGVPKRFSGSRSGSDYSLTISSLESEDFVDYYCLQYVSSPPTFGAGTKLELKRADAAPTVSIFPPSSEQLTSGGASVVCFLNNFYPKDINVKWKIDGSERQNGVLNSWTDQDSKDSTYSMSSTLTLTKDEYERHNSYTCEATHKTSTSPIVKSFNRNEC heavy 2: QVQLVESGGGVVQPGGSLRLSCAASGFTFSNAWMHWVRQAPGKGLEWVAQIKDKSQNYATYVAESVKGRFTISRADSKNSIYLQMNSLKTEDTAVYYCRYVHYAAGYGVDIWGQGTTVTVSSAKTTPPSVYPLAPGSAAQTNSMVTLGCLVKGYFPEPVTVTWNSGSLSSGVHTFPAVLQSDLYTLSSSVTVPSSTWPSETVTCNVAHPASSTKVDKKIVPRDCGCKPCICTVKEVSKVFIFPPKPKDVLTITLTPKVTCVVVDISKDDPEVQFSWFVDDVEVHTAQTQPREEQFNSTFRSVSELPIMHQDWLNGKEFKCRVNSAAFPAPIEKTISKTKGRPKAPQVYTIPPPKEQMAKDKVSLTCMITDFFPEDITVEWQWNGQPAENYKNTQPIMDTDGSYFVYSELNVQKSNWEAGNTFTCSVLHEGLHNHHTEKSLSHSPGK light 2: DIVMTQSPLSLPVTPGEPASISCRSSQPLVHSNRNTYLHWYQQKPGQAPRLLIYKVSNRFSGVPDRFSGSGSGTDFTLKISRVEAEDVGVYYCGQGTQVPYTFGQGTKLEIKRADAAPTVSIFPPSSEQLTSGGASVVCFLNNFYPKDINVKWKIDGSERQNGVLNSWTDQDSKDSTYSMSSTLTLTKDEYERHNSYTCEATHKTSTSPIVKSFNRNEC |  |  | luciferase signal (fold induction) at 5 nM antibody, Jurkat reporter T cells co-cultured with dead Ba/F3 cells: 16 fold; luciferase signal (fold induction) at 25 nM antibody, Jurkat reporter T cells co-cultured with dead Ba/F3 cells: 70 fold |
| TR01H113-mF18.G3S2.mC9.131/TR01L0011-mk1 (anti-CD3-Clec9A CTLD) (antibody, mouse IgG1, kappa) heavy: QVQLVESGGGVVQPGGSLRLSCAASGFTFSNAWMHWVRQAPGKGLEWVAQIKDKSQNYATYVAESVKGRFTISRADSKNSIYLQMNSLKTEDTAVYYCRYVHYAAGYGVDIWGQGTTVTVSSAKTTPPSVYPLAPGSAAQTNSMVTLGCLVKGYFPEPVTVTWNSGSLSSGVHTFPAVLQSDLYTLSSSVTVPSSTWPSETVTCNVAHPASSTKVDKKIVPRDCGCKPCICTVKEVSKVFIFPPKPKDVLTITLTPKVTCVVVDISKDDPEVQFSWFVDDVEVHTAQTQPREEQFNSTFRSVSELPIMHQDWLNGKEFKCRVNSAAFPAPIEKTISKTKGRPKAPQVYTIPPPKEQMAKDKVSLTCMITDFFPEDITVEWQWNGQPAENYKNTQPIMDTDGSYFVYSKLNVQKSNWEAGNTFTCSVLHEGLHNHHTEKSLSHSPGKGGGSGGGSGSDCSPCPHNWIQNGKSCYYVFERWEMWNISKKSCLKEGASLFQIDSKEEMEFISSIGKLKGGNKYWVGVFQDGISGSWFWEDGSSPLSDLLPAERQRSAGQICGYLKDSTLISDKCDSWKYFICEKKAFGSCI light: DIVMTQSPLSLPVTPGEPASISCRSSQPLVHSNRNTYLHWYQQKPGQAPRLLIYKVSNRFSGVPDRFSGSGSGTDFTLKISRVEAEDVGVYYCGQGTQVPYTFGQGTKLEIKRADAAPTVSIFPPSSEQLTSGGASVVCFLNNFYPKDINVKWKIDGSERQNGVLNSWTDQDSKDSTYSMSSTLTLTKDEYERHNSYTCEATHKTSTSPIVKSFNRNEC | ~46 | ~5 |  |
| TR01H113-mF18.G3S2.mC9ECD57/TR01L0011-mk1 (anti-CD3-Clec9A ECD) (antibody, mouse IgG1, kappa) heavy: QVQLVESGGGVVQPGGSLRLSCAASGFTFSNAWMHWVRQAPGKGLEWVAQIKDKSQNYATYVAESVKGRFTISRADSKNSIYLQMNSLKTEDTAVYYCRYVHYAAGYGVDIWGQGTTVTVSSAKTTPPSVYPLAPGSAAQTNSMVTLGCLVKGYFPEPVTVTWNSGSLSSGVHTFPAVLQSDLYTLSSSVTVPSSTWPSETVTCNVAHPASSTKVDKKIVPRDCGCKPCICTVKEVSKVFIFPPKPKDVLTITLTPKVTCVVVDISKDDPEVQFSWFVDDVEVHTAQTQPREEQFNSTFRSVSELPIMHQDWLNGKEFKCRVNSAAFPAPIEKTISKTKGRPKAPQVYTIPPPKEQMAKDKVSLTCMITDFFPEDITVEWQWNGQPAENYKNTQPIMDTDGSYFVYSKLNVQKSNWEAGNTFTCSVLHEGLHNHHTEKSLSHSPGKGGGSGGGSKFFQVSSLVLEQQERLIQQDTALVNLTQWQRKYTLEYCQALLQRSLHSGTDASTGPVLLTSPQMVPQTLDSKETGSDCSPCPHNWIQNGKSCYYVFERWEMWNISKKSCLKEGASLFQIDSKEEMEFISSIGKLKGGNKYWVGVFQDGISGSWFWEDGSSPLSDLLPAERQRSAGQICGYLKDSTLISDKCDSWKYFICEKKAFGSCI light: DIVMTQSPLSLPVTPGEPASISCRSSQPLVHSNRNTYLHWYQQKPGQAPRLLIYKVSNRFSGVPDRFSGSGSGTDFTLKISRVEAEDVGVYYCGQGTQVPYTFGQGTKLEIKRADAAPTVSIFPPSSEQLTSGGASVVCFLNNFYPKDINVKWKIDGSERQNGVLNSWTDQDSKDSTYSMSSTLTLTKDEYERHNSYTCEATHKTSTSPIVKSFNRNEC | ~54 | ~5 |  |
